From article PMC6368843 (Biochemistry, 2016) come the findings set out here.

Data set [1] has as its target T1, Purβ FL (full-length NHis-Purβ) (Mus musculus, UniProt O35295).
T1 sequence (O35295 1-324): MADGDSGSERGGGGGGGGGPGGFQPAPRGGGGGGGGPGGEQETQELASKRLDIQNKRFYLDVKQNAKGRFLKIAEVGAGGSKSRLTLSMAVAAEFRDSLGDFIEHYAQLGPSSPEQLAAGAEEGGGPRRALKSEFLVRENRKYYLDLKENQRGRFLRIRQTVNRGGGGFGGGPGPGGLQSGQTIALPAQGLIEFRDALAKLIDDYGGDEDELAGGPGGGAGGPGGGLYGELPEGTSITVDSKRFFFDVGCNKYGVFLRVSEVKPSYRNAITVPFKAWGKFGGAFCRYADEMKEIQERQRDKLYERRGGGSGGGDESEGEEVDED
The data set is described as follows: ssDNA-binding ELISA.

The next data set deals with T2, Purβ I-II-III (Mus musculus, UniProt O35295).
T2 sequence (O35295 41-303): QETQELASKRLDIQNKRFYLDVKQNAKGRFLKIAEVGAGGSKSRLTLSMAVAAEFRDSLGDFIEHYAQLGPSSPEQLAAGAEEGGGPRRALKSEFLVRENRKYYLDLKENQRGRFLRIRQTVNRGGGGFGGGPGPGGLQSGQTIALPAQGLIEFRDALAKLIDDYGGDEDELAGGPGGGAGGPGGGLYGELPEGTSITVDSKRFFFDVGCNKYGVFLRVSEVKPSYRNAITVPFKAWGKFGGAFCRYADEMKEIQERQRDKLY
The data set is described as follows: ssDNA-binding ELISA. On the technique in general: In an ELISA, binding on a coated surface is turned into a signal by an enzyme label.

Another data set has as its target T3, Purβ III (Mus musculus, UniProt O35295).
T3 sequence (O35295 209-303): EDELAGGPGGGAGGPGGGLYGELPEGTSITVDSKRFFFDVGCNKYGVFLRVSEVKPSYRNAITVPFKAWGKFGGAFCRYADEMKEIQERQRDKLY
The data set is described as follows: ssDNA-binding ELISA.

The data set “SEC” concerns the molecule itself. As to the kind of experiment: SEC. On the technique in general: In gel filtration, larger molecules generally elute earlier.
Data set [2] has as its target T4, Purβ FL (wild-type NHis-Purβ) (Mus musculus, UniProt O35295 1-324).
T4 sequence: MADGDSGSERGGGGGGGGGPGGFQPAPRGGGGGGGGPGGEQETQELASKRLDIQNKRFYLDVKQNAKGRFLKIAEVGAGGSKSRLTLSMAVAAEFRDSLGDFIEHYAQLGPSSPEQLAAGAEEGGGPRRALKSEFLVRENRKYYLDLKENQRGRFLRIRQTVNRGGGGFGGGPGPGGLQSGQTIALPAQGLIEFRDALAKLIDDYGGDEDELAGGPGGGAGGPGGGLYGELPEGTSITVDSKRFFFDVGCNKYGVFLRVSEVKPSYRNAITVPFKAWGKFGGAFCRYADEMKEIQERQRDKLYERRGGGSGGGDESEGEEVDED
As to the kind of experiment: ELISA.

Another data set addresses T5, Purβ R159A/R267A (Mus musculus, UniProt O35295 1-324, R159A;R267A).
T5 sequence: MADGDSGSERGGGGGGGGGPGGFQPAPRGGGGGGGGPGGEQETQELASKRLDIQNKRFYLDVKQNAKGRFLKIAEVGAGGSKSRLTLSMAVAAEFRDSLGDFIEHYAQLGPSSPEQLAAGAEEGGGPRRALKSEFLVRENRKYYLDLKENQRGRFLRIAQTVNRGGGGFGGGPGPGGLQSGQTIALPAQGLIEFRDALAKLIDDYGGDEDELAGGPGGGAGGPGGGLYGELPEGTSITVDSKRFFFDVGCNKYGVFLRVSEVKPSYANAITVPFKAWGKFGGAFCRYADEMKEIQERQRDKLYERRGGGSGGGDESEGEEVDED
As to the kind of experiment: ELISA.

For a further data set, the target named is T6, Purβ R267A (Mus musculus, UniProt O35295 1-324, R267A).
T6 sequence: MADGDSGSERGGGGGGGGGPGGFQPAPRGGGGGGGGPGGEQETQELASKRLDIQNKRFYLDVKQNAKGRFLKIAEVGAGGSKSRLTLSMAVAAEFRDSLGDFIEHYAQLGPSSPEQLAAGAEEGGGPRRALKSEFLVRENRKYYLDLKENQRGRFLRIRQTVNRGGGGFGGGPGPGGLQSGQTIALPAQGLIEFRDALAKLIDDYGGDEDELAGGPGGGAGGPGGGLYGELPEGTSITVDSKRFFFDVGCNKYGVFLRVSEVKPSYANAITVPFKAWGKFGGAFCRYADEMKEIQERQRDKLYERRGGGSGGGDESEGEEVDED
As to the kind of experiment: ELISA.

The term IC50 denotes the concentration that inhibits the measured activity by half. For the molecule `C[C@H](CCC(=O)O)[C@H]1CC[C@H]2[C@@H]3CC[C@@H]4C[C@H](O)CC[C@]4(C)[C@H]3C[C@H](O)[C@]12C` [sodium deoxycholate], the half-maximal inhibitory concentration (IC50) in data set [1] was 2.36 mM; at Purβ I-II-III it was 2.03 mM; on Purβ III, 1.45 mM.

B1: Purβ K82A/R159A/R267A triple point mutant, N-terminally hexahistidine-tagged (natural protein, mouse, UniProt O35295 1-324, looked up)
chain: MADGDSGSERGGGGGGGGGPGGFQPAPRGGGGGGGGPGGEQETQELASKRLDIQNKRFYLDVKQNAKGRFLKIAEVGAGGSASRLTLSMAVAAEFRDSLGDFIEHYAQLGPSSPEQLAAGAEEGGGPRRALKSEFLVRENRKYYLDLKENQRGRFLRIAQTVNRGGGGFGGGPGPGGLQSGQTIALPAQGLIEFRDALAKLIDDYGGDEDELAGGPGGGAGGPGGGLYGELPEGTSITVDSKRFFFDVGCNKYGVFLRVSEVKPSYANAITVPFKAWGKFGGAFCRYADEMKEIQERQRDKLYERRGGGSGGGDESEGEEVDED
As a reminder, the stoichiometry N is the number of molecules, sites or subunits per partner or assembly. For the molecule B1, in “SEC”, the “stoichiometry N” value is 2.

B2: Purβ R159A/R267A double point mutant, N-terminally hexahistidine-tagged (natural protein, mouse, UniProt O35295 1-324, looked up)
chain: MADGDSGSERGGGGGGGGGPGGFQPAPRGGGGGGGGPGGEQETQELASKRLDIQNKRFYLDVKQNAKGRFLKIAEVGAGGSKSRLTLSMAVAAEFRDSLGDFIEHYAQLGPSSPEQLAAGAEEGGGPRRALKSEFLVRENRKYYLDLKENQRGRFLRIAQTVNRGGGGFGGGPGPGGLQSGQTIALPAQGLIEFRDALAKLIDDYGGDEDELAGGPGGGAGGPGGGLYGELPEGTSITVDSKRFFFDVGCNKYGVFLRVSEVKPSYANAITVPFKAWGKFGGAFCRYADEMKEIQERQRDKLYERRGGGSGGGDESEGEEVDED
Take B2: the “stoichiometry N” value in “SEC” worked out at 2.

B3: Purβ R267A single point mutant, N-terminally hexahistidine-tagged (natural protein, mouse, UniProt O35295 1-324, looked up)
chain: MADGDSGSERGGGGGGGGGPGGFQPAPRGGGGGGGGPGGEQETQELASKRLDIQNKRFYLDVKQNAKGRFLKIAEVGAGGSKSRLTLSMAVAAEFRDSLGDFIEHYAQLGPSSPEQLAAGAEEGGGPRRALKSEFLVRENRKYYLDLKENQRGRFLRIRQTVNRGGGGFGGGPGPGGLQSGQTIALPAQGLIEFRDALAKLIDDYGGDEDELAGGPGGGAGGPGGGLYGELPEGTSITVDSKRFFFDVGCNKYGVFLRVSEVKPSYANAITVPFKAWGKFGGAFCRYADEMKEIQERQRDKLYERRGGGSGGGDESEGEEVDED
Take B3: the “stoichiometry N” value in the data set “SEC” worked out at 2.
The term Kd denotes the concentration at which binding is half-saturated. Low readings indicate tighter binding, high ones weaker binding. On to GGGAGCAGAACAGAGGAATGCAGTGGAAGAGA (ssDNA) [PE32-bF], for which the Kd in data set [2] was determined as 0.17 ± 0.01 nM; with Purβ R159A/R267A, 0.6 ± 0.04 nM; in the data set with Purβ R267A it was 0.57 ± 0.04 nM.
